Source: US20160271244A1

Tests used:
[1] = target: SSB; experiment: Athena autoantigen assay, mAb 25 ug/ml
[2] = target: Sm; experiment: Athena autoantigen assay, mAb 25 ug/ml
[3] = target: RNP; experiment: Athena autoantigen assay, mAb 25 ug/ml
[4] = target: Jo 1; experiment: Athena autoantigen assay, mAb 25 ug/ml
[5] = target: SSA; experiment: Athena autoantigen assay, mAb 25 ug/ml
[6] = target: Histone; experiment: Athena autoantigen assay, mAb 25 ug/ml
[7] = target: Scl 70; experiment: Athena autoantigen assay, mAb 25 ug/ml
[8] = target: Influenza HA (Wisconsin) (influenza virus); experiment: Luminex assay, antibody 50 µg/ml
[9] = target: HCV E2 (HCV); experiment: Luminex assay, antibody 50 µg/ml
[10] = target: RNP; experiment: Athena autoantigen assay, mAb 50 ug/ml
[11] = target: Histone; experiment: Athena autoantigen assay, mAb 50 ug/ml
[12] = target: SSB; experiment: Athena autoantigen assay, mAb 6.25 ug/ml
[13] = target: Sm; experiment: Athena autoantigen assay, mAb 6.25 ug/ml
[14] = target: RNP; experiment: Athena autoantigen assay, mAb 6.25 ug/ml
[15] = target: Jo 1; experiment: Athena autoantigen assay, mAb 6.25 ug/ml
[16] = target: SSA; experiment: Athena autoantigen assay, mAb 6.25 ug/ml
[17] = target: Histone; experiment: Athena autoantigen assay, mAb 6.25 ug/ml
[18] = target: Scl 70; experiment: Athena autoantigen assay, mAb 6.25 ug/ml
[19] = target: SSB; experiment: Athena autoantigen assay, mAb 12.5 ug/ml
[20] = target: Sm; experiment: Athena autoantigen assay, mAb 12.5 ug/ml
[21] = target: RNP; experiment: Athena autoantigen assay, mAb 12.5 ug/ml
[22] = target: Jo 1; experiment: Athena autoantigen assay, mAb 12.5 ug/ml
[23] = target: SSA; experiment: Athena autoantigen assay, mAb 12.5 ug/ml
[24] = target: Histone; experiment: Athena autoantigen assay, mAb 12.5 ug/ml
[25] = target: Scl 70; experiment: Athena autoantigen assay, mAb 12.5 ug/ml
[26] = target: HV00044 (6240 TZ5 140C) (HIV-1); experiment: surface plasmon resonance; five sensorgrams with fitted curves, highest rising to about 650 RU with almost no dissociation up to 1000 s
[27] = target: Env (gp120) of HIV-1 isolate 7165.18 (HIV-1); experiment: cell-based or functional assay
[28] = target: Env (gp120) of HIV-1 JRFL.N160K.E168K (HIV-1); experiment: cell-based or functional assay
[29] = target: Env (gp120) of HIV-1 JRFL.E168K (HIV-1); experiment: cell-based or functional assay
[30] = target: Env (gp120) of HIV-1 isolate JRFL (virus) (HIV-1); experiment: cell-based or functional assay
[31] = target: Env (gp120) of HIV-1 Q23.17.N160K (HIV-1); experiment: cell-based or functional assay
[32] = target: Env (gp120) of HIV-1 JRCSF.N160K (HIV-1) (UniProt P20871); experiment: cell-based or functional assay
[33] = target: Env (gp120) of HIV-1 isolate Q23.17 (HIV-1); experiment: cell-based or functional assay
[34] = target: Env (gp120) of HIV-1 7165.18.N160K (HIV-1); experiment: cell-based or functional assay
[35] = target: Env (gp120) of HIV-1 isolate JRCSF (HIV-1) (UniProt P20871); experiment: cell-based or functional assay

SSB, sequence (P05455 whole entry): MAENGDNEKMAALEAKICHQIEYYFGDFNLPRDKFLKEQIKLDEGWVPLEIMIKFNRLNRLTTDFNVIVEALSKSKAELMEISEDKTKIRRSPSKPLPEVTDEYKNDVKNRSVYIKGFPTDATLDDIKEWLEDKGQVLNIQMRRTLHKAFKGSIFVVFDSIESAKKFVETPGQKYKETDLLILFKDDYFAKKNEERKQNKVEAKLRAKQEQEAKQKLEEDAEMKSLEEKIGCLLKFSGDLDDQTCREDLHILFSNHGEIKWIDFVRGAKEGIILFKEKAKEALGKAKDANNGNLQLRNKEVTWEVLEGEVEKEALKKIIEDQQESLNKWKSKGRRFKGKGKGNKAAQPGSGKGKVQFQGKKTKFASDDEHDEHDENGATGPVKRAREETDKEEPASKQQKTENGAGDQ
Jo 1, sequence (P12081 2-509): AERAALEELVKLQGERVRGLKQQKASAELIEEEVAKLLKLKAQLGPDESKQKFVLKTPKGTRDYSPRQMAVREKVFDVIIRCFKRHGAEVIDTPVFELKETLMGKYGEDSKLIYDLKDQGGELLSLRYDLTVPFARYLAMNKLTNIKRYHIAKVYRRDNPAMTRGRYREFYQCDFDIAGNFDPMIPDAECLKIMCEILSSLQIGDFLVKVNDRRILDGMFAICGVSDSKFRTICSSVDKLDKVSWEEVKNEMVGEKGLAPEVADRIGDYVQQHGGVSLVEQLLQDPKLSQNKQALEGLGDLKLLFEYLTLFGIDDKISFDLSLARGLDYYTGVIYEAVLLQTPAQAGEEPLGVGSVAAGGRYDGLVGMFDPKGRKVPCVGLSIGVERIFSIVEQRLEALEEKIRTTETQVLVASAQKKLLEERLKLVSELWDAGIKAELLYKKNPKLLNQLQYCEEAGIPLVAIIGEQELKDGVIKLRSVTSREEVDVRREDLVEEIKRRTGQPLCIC

CH03 (antibody)
Athena autoreactivity score [1]: 4
Athena autoreactivity score [2]: 10
Athena autoreactivity score [3]: 70
Athena autoreactivity score [4]: 4
Athena autoreactivity score [5]: 6
Athena autoreactivity score [6]: 386
Athena autoreactivity score [7]: 7
background subtracted RFUs [8]: 1 RFU
background subtracted RFUs [9]: 2910 RFU
Athena autoreactivity score [10]: 132
Athena autoreactivity score [11]: 844
Athena autoreactivity score [12]: 5
Athena autoreactivity score [13]: 7
Athena autoreactivity score [14]: 51
Athena autoreactivity score [15]: 3
Athena autoreactivity score [16]: 5
Athena autoreactivity score [17]: 231
Athena autoreactivity score [18]: 4
Athena autoreactivity score [19]: 6
Athena autoreactivity score [20]: 9
Athena autoreactivity score [21]: 74
Athena autoreactivity score [22]: 4
Athena autoreactivity score [23]: 6
Athena autoreactivity score [24]: 359
Athena autoreactivity score [25]: 8

CH04 (antibody)
background subtracted RFUs [8]: 2.5 RFU
background subtracted RFUs [9]: 0.5 RFU

CH05 (antibody)
background subtracted RFUs [8]: 5.5 RFU
background subtracted RFUs [9]: 1.3 RFU

PG9 (antibody)
Kd [26]: 0.75 nM
background subtracted RFUs [8]: 0 RFU
background subtracted RFUs [9]: 0 RFU
IC50 (virus neutralization) [27]: > 50 µg/mL
IC80 (virus neutralization) [27]: > 50 µg/mL
IC50 (virus neutralization) [28]: > 50 µg/mL
IC80 (virus neutralization) [28]: > 50 µg/mL
IC50 (virus neutralization) [29]: 0.008 µg/mL
IC80 (virus neutralization) [29]: 0.055 µg/mL
IC50 (virus neutralization) [30]: > 50 µg/mL
IC80 (virus neutralization) [30]: > 50 µg/mL
IC50 (virus neutralization) [31]: > 50 µg/mL
IC80 (virus neutralization) [31]: > 50 µg/mL
IC50 (virus neutralization) [32]: > 50 µg/mL
IC80 (virus neutralization) [32]: > 50 µg/mL
IC50 (virus neutralization) [33]: 0.002 µg/mL
IC80 (virus neutralization) [33]: 0.005 µg/mL
IC50 (virus neutralization) [34]: > 50 µg/mL
IC80 (virus neutralization) [34]: > 50 µg/mL
IC50 (virus neutralization) [35]: 0.003 µg/mL
IC80 (virus neutralization) [35]: 0.008 µg/mL

PG16 (antibody)
background subtracted RFUs [8]: 0 RFU
background subtracted RFUs [9]: 0 RFU
IC50 (virus neutralization) [27]: 11.8 µg/mL
IC80 (virus neutralization) [27]: > 50 µg/mL
IC50 (virus neutralization) [28]: > 50 µg/mL
IC80 (virus neutralization) [28]: > 50 µg/mL
IC50 (virus neutralization) [29]: 0.003 µg/mL
IC80 (virus neutralization) [29]: 0.015 µg/mL
IC50 (virus neutralization) [30]: > 50 µg/mL
IC80 (virus neutralization) [30]: > 50 µg/mL
IC50 (virus neutralization) [31]: > 50 µg/mL
IC80 (virus neutralization) [31]: > 50 µg/mL
IC50 (virus neutralization) [32]: > 50 µg/mL
IC80 (virus neutralization) [32]: > 50 µg/mL
IC50 (virus neutralization) [33]: 0.001 µg/mL
IC80 (virus neutralization) [33]: 0.003 µg/mL
IC50 (virus neutralization) [34]: > 50 µg/mL
IC80 (virus neutralization) [34]: > 50 µg/mL
IC50 (virus neutralization) [35]: 0.003 µg/mL
IC80 (virus neutralization) [35]: 0.012 µg/mL

Synagis (anti-RSV control mAb) (antibody)
background subtracted RFUs [8]: 1 RFU
background subtracted RFUs [9]: 0.5 RFU
